Reference: patent US5492821A, “Stabilized polyacrylic saccharide protein conjugates” (Cargill, Inc., priority 1991, dated 1996)

B1: Carlsberg-subtilisin (native) (Bacillus licheniformis) (protein)
chain: AQTVPYGIPLIKADKVQAQGFKGANVKVAVLDTGIQASHPDLNVVGGASFVAGEAYNTDGNGHGTHVAGTVAALDNTTGVLGVAPSVSLYAVKVLNSSGSGSYSGIVSGIEWATTNGMDVINMSLGGASGSTAMKQAVDNAYAKGVVVVAAAGNSGSSGNTNTIGYPAKYDSVIAVGAVDSNSNRASFSSVGAELEVMAPGAGVYSTYPTNTYATLNGTSMASPHVAGAAALILSKHPNLSASQVRNRLSSTATYLGSSFYYGKGLINVEAAAQ
B2: BPN'-subtilisin (native) (Bacillus amyloliquefaciens) (protein)
chain: AQSVPYGVSQIKAPALHSQGYTGSNVKVAVIDSGIDSSHPDLKVAGGASMVPSETNPFQDNNSHGTHVAGTVAALNNSIGVLGVAPSASLYAVKVLGADGSGQYSWIINGIEWAIANNMDVINMSLGGPSGSAALKAAVDKAVASGVVVVAAAGNEGTSGSSSTVGYPGKYPSVIAVGAVDSSNQRASFSSVGPELDVMAPGVSIQSTLPGNKYGAYNGTSMASPHVAGAAALILSKHPNWTNTQVRSSLENTTTKLGDSFYYGKGLINVQAAAQ

Assays:
[1] = substrate: C[C@H](NC(=O)CCC(=O)O)C(=O)N[C@@H](C)C(=O)N1CCC[C@H]1C(=O)N[C@@H](Cc1ccccc1)C(=O)Nc1ccc([N+](=O)[O-])cc1; assay: Km and kcat of enzyme, Table 1; type: biochemical; details: other: 0.05M sodium phosphate buffer at pH 8 containing 10% methanol
Method: (§1) The yield of the active enzyme was determined by comparison of the relative activity of the native trypsin and the trypsin-polymer conjugate for N-succinyl-Ala-Ala-Pro-Phe p-nitroanilide as the substrate in 0.05M sodium phosphate buffer at pH 8 containing 10% methanol.
The procedure of EXAMPLE 8 (a) (i) was repeated in every essential detail except that Carlsberg-subtilisin was used instead of trypsin.

[2] = substrate: C[C@H](NC(=O)CCC(=O)O)C(=O)N[C@@H](C)C(=O)N1CCC[C@H]1C(=O)N[C@@H](Cc1ccccc1)C(=O)Nc1ccc([N+](=O)[O-])cc1; assay: Km and kcat of enzyme, Table 1; type: biochemical; details: other: 0.05M sodium phosphate buffer at pH 8 containing 10% methanol; remark: listed apart in the source
Method: as §1
The procedure of EXAMPLE 8 (a) (i) was repeated in every essential detail except that BPN'-subtilisin was used instead of trypsin.

Row | Protein | Km [1] | kcat [1] | Km [2] | kcat [2]
1 | B1 | 251 µM | 420 s⁻¹ | – | –
2 | B2 | – | – | 240 µM | 83 s⁻¹
